{"source": "patent US20020123042", "proteins": {"B1": {"name": "full-length HA-epitope tagged huBUB1 (plasmid p396-1) (protein)", "chain": "GGGGGGMDTPENVLQMLEAHMQSYKGNDPLGEWERYIQWVEENFPENKEYLITLLEHLMKEFLDKKKYHNDPRFISYCLKFAEYNSDLHQFFEFLYNHGIGTLSSPLYIAWAGHLEAQGELQHASAVLQRGIQNQAEPREFLQQQYRLFQTRLTETHLPAQARTSEPLHNVQVLNQMITSKSNPGNNMACISKNQGSELSGVISSACDKESNMERRVITISKSEYSVHSSLASKVDVEQVVMYCKEKLIRGESEFSFEELRAQKYNQRRKHEQWVNEDRHYMKRKEANAFEEQLLKQKMDELHKKLHQVVETSHEDLPASQERSEVNPARMGPSVGSQQELRAPCLPVTYQQTPVNMEKNPREAPPVVPPLANAISAALVSPATSQSIAPPVPLKAQTVTDSMFAVASKDAGCVNKSTHEFKPQSGAEIKEGCETHKVANTSSFHTTPNTSLGMVQATPSKVQPSPTVHTKEALGFIMNMFQAPTLPDISDDKDEWQSLDQNEDAFEAQFQKNVRSSGAWGVNKIISSLSSAFHVFEDGNKENYGLPQPKNKPTGARTFGERSVSRLPSKPKEEVPHAEEFLDDSTVWGIRCNKTLAPSPKSPGDFTSAAQLASTPFHKLPVESVHILEDKENVVAKQCTQATLDSCEENMVVPSRDGKFSPIQEKSPKQALSSHMYSASLLRLSQPAAGGVLTCEAELGVEACRLTDTDAAIAEDPPDAIAGLQAEWMQMSSLGTVDAPNFIVGNPWDDKLIFKLLSGLSKPVSSYPNTFEWQCKLPAIKPKTEFQLGSKLVYVHHLLGEGAFAQVYEATQGDLNDAKNKQKFVLKVQKPANPWEFYIGTQLMERLKPSMQHMFMKFYSAHLFQNGSVLVGELYSYGTLLNAINLYKNTPEKVMPQGLVISFAMRMLYMIEQVHDCEIIHGDIKPDNFILGNGFLEQDDEDDLSAGLALIDLGQSIDMKLFPKGTIFTAKCETSGFQCVEMLSNKPWNYQIDYFGVAATVYCMLFGTYMKVKNEGGECKPEGLFRRLPHLDMWNEFFHVMLNIPDCHHLPSLDLLRQKLKKVFQQHYTNKIRALRNRLIVLLLECKRSRK"}, "B2": {"name": "wild-type huBUB1 (full-length, plasmid p385-1) (protein)", "chain": "MDTPENVLQMLEAHMQSYKGNDPLGEWERYIQWVEENFPENKEYLITLLEHLMKEFLDKKKYHNDPRFISYCLKFAEYNSDLHQFFEFLYNHGIGTLSSPLYIAWAGHLEAQGELQHASAVLQRGIQNQAEPREFLQQQYRLFQTRLTETHLPAQARTSEPLHNVQVLNQMITSKSNPGNNMACISKNQGSELSGVISSACDKESNMERRVITISKSEYSVHSSLASKVDVEQVVMYCKEKLIRGESEFSFEELRAQKYNQRRKHEQWVNEDRHYMKRKEANAFEEQLLKQKMDELHKKLHQVVETSHEDLPASQERSEVNPARMGPSVGSQQELRAPCLPVTYQQTPVNMEKNPREAPPVVPPLANAISAALVSPATSQSIAPPVPLKAQTVTDSMFAVASKDAGCVNKSTHEFKPQSGAEIKEGCETHKVANTSSFHTTPNTSLGMVQATPSKVQPSPTVHTKEALGFIMNMFQAPTLPDISDDKDEWQSLDQNEDAFEAQFQKNVRSSGAWGVNKIISSLSSAFHVFEDGNKENYGLPQPKNKPTGARTFGERSVSRLPSKPKEEVPHAEEFLDDSTVWGIRCNKTLAPSPKSPGDFTSAAQLASTPFHKLPVESVHILEDKENVVAKQCTQATLDSCEENMVVPSRDGKFSPIQEKSPKQALSSHMYSASLLRLSQPAAGGVLTCEAELGVEACRLTDTDAAIAEDPPDAIAGLQAEWMQMSSLGTVDAPNFIVGNPWDDKLIFKLLSGLSKPVSSYPNTFEWQCKLPAIKPKTEFQLGSKLVYVHHLLGEGAFAQVYEATQGDLNDAKNKQKFVLKVQKPANPWEFYIGTQLMERLKPSMQHMFMKFYSAHLFQNGSVLVGELYSYGTLLNAINLYKNTPEKVMPQGLVISFAMRMLYMIEQVHDCEIIHGDIKPDNFILGNGFLEQDDEDDLSAGLALIDLGQSIDMKLFPKGTIFTAKCETSGFQCVEMLSNKPWNYQIDYFGVAATVYCMLFGTYMKVKNEGGECKPEGLFRRLPHLDMWNEFFHVMLNIPDCHHLPSLDLLRQKLKKVFQQHYTNKIRALRNRLIVLLLECKRSRK"}}, "key": {"[1]": {"target": "wild type huBUB3 (plasmid p291-2)", "sequence (chain, as listed by the source)": "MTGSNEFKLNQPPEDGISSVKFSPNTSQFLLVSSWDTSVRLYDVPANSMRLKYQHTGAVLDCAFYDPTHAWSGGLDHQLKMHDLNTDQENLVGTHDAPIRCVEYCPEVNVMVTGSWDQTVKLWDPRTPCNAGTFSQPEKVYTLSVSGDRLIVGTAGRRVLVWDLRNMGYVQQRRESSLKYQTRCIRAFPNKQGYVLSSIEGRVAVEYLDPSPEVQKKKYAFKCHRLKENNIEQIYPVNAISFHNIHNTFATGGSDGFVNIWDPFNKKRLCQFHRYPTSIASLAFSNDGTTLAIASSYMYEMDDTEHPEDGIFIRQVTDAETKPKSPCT"}}, "data": [{"protein": "B1", "values": [{"measurement": "autophosphorylation of HA-huBUB1", "setting": "[1]", "value": "Co-translation of huBUB3 may stimulate this autophosphorylation activity."}]}, {"protein": "B2", "values": [{"measurement": "phosphorylation of an exogenous substrate (33P-ATP kinase reaction of immunopurified FLAG-BUB3/BUB1, SDS-PAGE, autoradiography)", "setting": "PHAS-I (Strategene)", "value": "only PHAS-I demonstrated clear huBUB1-dependent activity as a kinase substrate"}]}]}
